# Reference: paper PMC10092738, “Structural insights into the mechanism of adaptive ribosomal modification by Pseudomonas RimK” (Proteins, 2022)
# T1: RimKPA (Pseudomonas aeruginosa, UniProt Q9HTZ2)
# T1 construct: gene rimK; full ORF in pET29a, C-terminal hexahistidine tag, E. coli BL21 (DE3) pLysS; tetramer
# T1 sequence (Q9HTZ2 1-301): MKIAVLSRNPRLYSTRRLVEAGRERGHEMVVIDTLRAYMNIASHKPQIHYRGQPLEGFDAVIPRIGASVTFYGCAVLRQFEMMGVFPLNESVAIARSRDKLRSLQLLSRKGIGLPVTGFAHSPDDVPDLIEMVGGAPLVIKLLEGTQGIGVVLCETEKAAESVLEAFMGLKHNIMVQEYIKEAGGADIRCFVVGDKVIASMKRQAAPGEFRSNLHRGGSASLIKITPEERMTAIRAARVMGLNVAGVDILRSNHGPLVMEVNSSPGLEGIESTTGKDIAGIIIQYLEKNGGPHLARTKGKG
# T2: RimKPS (Pseudomonas syringae group genomosp. 3, UniProt Q88AZ9)
# T2 construct: gene rimK; full ORF in pET29a, C-terminal hexahistidine tag, E. coli BL21 (DE3) pLysS; tetramer
# T2 sequence (Q88AZ9 1-301): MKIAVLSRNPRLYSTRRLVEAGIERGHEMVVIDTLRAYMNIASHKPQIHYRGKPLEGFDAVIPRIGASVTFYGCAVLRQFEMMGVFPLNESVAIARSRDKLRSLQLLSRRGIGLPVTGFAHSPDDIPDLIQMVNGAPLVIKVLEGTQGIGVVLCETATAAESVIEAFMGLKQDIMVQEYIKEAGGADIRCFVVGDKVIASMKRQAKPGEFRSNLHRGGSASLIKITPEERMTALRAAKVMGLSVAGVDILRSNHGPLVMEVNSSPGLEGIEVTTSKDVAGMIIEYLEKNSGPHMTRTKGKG
# Assays:
# RimKPA [1] = molecular target: T1, RimKPA; test: X-ray crystal structure, […] A; conditions: ATP binding site; co-purified from expression host; weak density, interpreted as ADP
# RimKPA [2] = molecular target: T1, RimKPA; test: PK/LDH-coupled ATPase assay, NADH oxidation at […] nm; assay type: biochemical; conditions: activator; 25 uM cdG, 2.5 uM RimK, ATP as substrate; pH 9.0, 20 mM MgSO4, 25 C
# RimKPS = molecular target: T2, RimKPS; test: as above; assay type: biochemical; conditions: activator; 25 uM cdG, 1.5 uM RimK, ATP as substrate; pH 9.0, 20 mM MgSO4, 25 C
# [3] = molecular target: P. aeruginosa PAO1 RimK (P. aeruginosa PAO1) (UniProt B7V3U4); test: crystal structure; RimKPA at 17 mg/ml, sitting-drop vapor diffusion at 293 K, 0.2 M potassium sodium tartrate, 0.1 M bis-tris propane pH 7.5, 20% PEG 3350; 2.4 Å, P2(1), eight copies in the asymmetric unit
# [4] = molecular target: P. syringae pv. tomato DC3000 RimK (P. syringae pv. tomato DC3000) (UniProt Q88AZ9)
# [5] = molecular target: the molecule itself; test: crystal structure; RimKPS at 3.7 mg/ml, sitting-drop vapor diffusion at 293 K, 0.2 M calcium chloride, 0.1 M HEPES pH 7.0, 20% PEG6000; ATP and cdG in the cryoprotectant; 2.9 Å, P1, 16 copies in the asymmetric unit
# purified protein [6] = substrate: Nc1ncnc2c1ncn2[C@@H]1O[C@H](COP(=O)(O)OP(=O)(O)OP(=O)(O)O)[C@@H](O)[C@H]1O; test: purified protein; conditions: 100 mM Tris-HCl pH 9.0, 20 mM MgSO4, 25 C, 1.5 uM RimK, no RimB
# purified protein [7] = substrate: Nc1ncnc2c1ncn2[C@@H]1O[C@H](COP(=O)(O)OP(=O)(O)OP(=O)(O)O)[C@@H](O)[C@H]1O; test: purified protein; assay type: biochemical, Pseudomonas fluorescens; conditions: 100 mM Tris-HCl pH 9.0, 20 mM MgSO4, 25 C, 1.5 uM RimK, no RimB
molecule,measurement,setting,value
Nc1ncnc2c1ncn2[C@@H]1O[C@H](COP(=O)(O)OP(=O)(O)O)[C@@H](O)[C@H]1O [ADP],"X-ray crystal structure, 2.4 A",RimKPA [1],"ADP and glutamate, of presumed cellular origin, were resolved in the RimKPA structure"
Nc1nc2c(ncn2[C@@H]2O[C@@H]3COP(=O)(O)O[C@H]4[C@@H](O)[C@H](n5cnc6c(=O)[nH]c(N)nc65)O[C@@H]4COP(=O)(O)O[C@H]3[C@H]2O)c(=O)[nH]1 [cyclic-di-GMP],"PK/LDH-coupled ATPase assay, NADH oxidation at 340 nm",RimKPA [2],the addition of cdG stimulated ATPase activity for both proteins
same,"PK/LDH-coupled ATPase assay, NADH oxidation at 340 nm",RimKPS,the addition of cdG stimulated ATPase activity for both proteins
P. aeruginosa PAO1 RimK (from UniProt B7V3U4 1-301) (enzyme),stoichiometry N,[3],4
RimB of P. syringae (enzyme),"RimKPS ATPase activity (linked PK/LDH assay) against RimBPS 0–1.2 mM, fitted K m",[4],120 µM
same,"RimKPS ATPase activity (linked PK/LDH assay) against RimBPS 0–1.2 mM, fitted V max",[4],692
"P. syringae pv. tomato DC3000 RimK (enzyme, UniProt Q88AZ9 1-301, looked up, RimK, ATP-dependent glutamate ligase, P. syringae pv. tomato DC3000; open reading frame of rimK cloned into pET29a; Tetramer in the crystal; 16 copies in the asymmetric unit; also called RimKPS; RimKPs; source: E. coli BL21 (DE3) pLysS, purified (His-Trap Excel column)) MKIAVLSRNPRLYSTRRLVEAGIERGHEMVVIDTLRAYMNIASHKPQIHYRGKPLEGFDAVIPRIGASVTFYGCAVLRQFEMMGVFPLNESVAIARSRDKLRSLQLLSRRGIGLPVTGFAHSPDDIPDLIQMVNGAPLVIKVLEGTQGIGVVLCETATAAESVIEAFMGLKQDIMVQEYIKEAGGADIRCFVVGDKVIASMKRQAKPGEFRSNLHRGGSASLIKITPEERMTALRAAKVMGLSVAGVDILRSNHGPLVMEVNSSPGLEGIEVTTSKDVAGMIIEYLEKNSGPHMTRTKGKG",stoichiometry N,[5],4
same,Km,purified protein [6]; a separate series in Figure S1 prints K m = 1.85 mM,1000 µM
"RimKPF (Pseudomonas [fluorescens] SBW25) (protein, purified recombinant RimK) MKIAVLSRNPRLYSTRRLVEAGVERGHEMVVIDTLRAYMNIASHKPQIHYRGKPLEGFDAVIPRIGASVTFYGCAVLRQFEMMGVFPLNESVAIARSRDKLRSLQLLSRRGIGLPVTGFAHSPDDIPDLIDMVNGAPLVIKVLEGTQGIGVVLCETATAAESVIEAFMGLKQNIMVQEYIKEAGGADIRCFVVGDKVIAAMKRQAKPGEFRSNLHRGGSASLIKITPEERMTALRAAKVMGLSVAGVDILRSNHGPLVMEVNSSPGLEGIETTTGKNVAGIIIEHLEKNGGPNMTRTKGKG",Km,purified protein [7],800 µM
RimKPA (Pseudomonas aeruginosa PAO1) (protein) MKIAVLSRNPRLYSTRRLVEAGRERGHEMVVIDTLRAYMNIASHKPQIHYRGQPLEGFDAVIPRIGASVTFYGCAVLRQFEMMGVFPLNESVAIARSRDKLRSLQLLSRKGIGLPVTGFAHSPDDVPDLIEMVGGAPLVIKLLEGTQGIGVVLCETEKAAESVLEAFMGLKHNIMVQEYIKEAGGADIRCFVVGDKVIASMKRQAAPGEFRSNLHRGGSASLIKITPEERMTAIRAARVMGLNVAGVDILRSNHGPLVMEVNSSPGLEGIESTTGKDIAGIIIQYLEKNGGPHLARTKGKG,Km,purified protein [6]; a separate series in Figure S1 prints K m = 2.1 mM,300 µM
